The source of these data is article PMC6180346, “Two Faces of CwlM, an Essential PknB Substrate, in Mycobacterium tuberculosis” (Cell Reports, 2018).

Experiment in all cases: co-IP; recombinant CwlM (PknB-phosphorylated or non-phosphorylated) and the other recombinant protein, 10 μg each, in 20 mM KH2PO4 pH 7.0, 100 mM NaCl, 10 mM KCl, with anti-CwlM-IgG-Sepharose; bound and unbound on SDS-PAGE, Coomassie; densitometry as percent of the total amount used
The target of experiment [1] is Recombinant 6xHis-tagged CwlM, non-phosphorylated (M. tuberculosis) (UniProt L7N653).
Experiment [2] addresses Recombinant 6xHis-tagged CwlM, PknB-phosphorylated (M. tuberculosis) (UniProt L7N653).
Experiment [3] addresses T1, Recombinant 6xHis-tagged CwlM, non-phosphorylated (M. tuberculosis, UniProt L7N653 1-406).
T1 construct: also called non-phosphorylated recombinant CwlM; non-phosphorylated CwlM
T1 sequence: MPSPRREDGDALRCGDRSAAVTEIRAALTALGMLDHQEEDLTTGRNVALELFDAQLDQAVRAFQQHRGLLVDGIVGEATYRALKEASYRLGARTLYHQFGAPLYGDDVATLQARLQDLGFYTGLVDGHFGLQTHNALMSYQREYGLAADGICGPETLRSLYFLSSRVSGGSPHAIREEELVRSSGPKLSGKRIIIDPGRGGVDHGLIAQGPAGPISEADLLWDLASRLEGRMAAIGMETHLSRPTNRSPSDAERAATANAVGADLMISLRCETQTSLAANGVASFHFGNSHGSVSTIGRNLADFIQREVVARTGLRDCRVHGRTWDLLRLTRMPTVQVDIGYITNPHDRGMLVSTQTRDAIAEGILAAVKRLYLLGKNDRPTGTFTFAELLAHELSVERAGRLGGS
To be noted: both partners purified.

Take “Recombinant 6XHis-tagged MurJ ICD (domain or fragment)”: the percent co-precipitated was 85% in experiment [1] and 12% in experiment [2].

B1: Recombinant 6xHis-tagged 6xHis-MurJ_(E541-F680) (domain or fragment)
chain: EARAALDAVRARIRSRRLKTGPQTQNVLDQSSRPGPVTYPERRRLAPPRGKSVVHEPIRRRPPEQVARAGRAKGPEVIDRPSENASFGAASGAELPRPVADELQLDAPAGRDPGPVSRPHPSDLQNGDLPADAARGPIAF
notes: The N-terminal end of the tag is read from the printed name 6xHis-MurJ_(E541-F680); also called MurJ linker; linker region (E541-F680)
For the molecule B1, in experiment [3], the binding result is “binds”.
